Experimental data taken from patent US20240376218A1 (published 2024).
Numbering of substitutions follows the chain as printed.

B1: TPP-18205 (antibody, human IgG1, lambda, V domains shown)
VH: EVQLLESGGGLVQPGGSLRLSCAASGFTFSSYAMSWVRQAPGKGLEWVSGIRWNSGSKGYAGSVKGRFTISRDNSKNTLYLQMNSLRAEDTAVYYCVRSGNYYVGYHGMDVWGQGTLVTVSS
VL: QSVLTQPPSASGTPGQRVTISCSGGNSNIGTYFVSWYQQLPGTAPKLLIYTNNQRPSGVPDRFSGSKSGTSASLAISGLRSEDEADYYCETWDSNTRVFGGGTKLTVLG
B2: TPP-17577 (antibody, human IgG1, lambda, V domains shown)
VH: EVQLLESGGGLLQPGGSLRLSCAASGFTFSNAWMSWVRQAPGKGLEWVAVISYDGRNKYSADSVKGRFTISRDNSKNTLYLQMNSLRAEDTAVYYCARGLPYGYWGQGTLVTVSS
VL: not shown
B3: TPP-17578 (antibody, human IgG1, lambda, V domains shown)
VH: EVQLLESGGGLVQPGGSLRLSCAASGFTFSNAWMSWVRQAPGKGLEWVSGINWNGGSTGYADSVKGRFTISRDNSKNTLYLQMNSLRAEDTAVYYCVRTYSGHYGPYFDNWGQGTLVTVSS
VL: not shown
B4: TPP-21045 (17578-gl79-hIgG1-wt-Lambda), afucosylated (antibody, V domains shown)
VH: B3 VH with N31S, N52S, N54S, D62L, V97A, Y107F, N110Y
VL: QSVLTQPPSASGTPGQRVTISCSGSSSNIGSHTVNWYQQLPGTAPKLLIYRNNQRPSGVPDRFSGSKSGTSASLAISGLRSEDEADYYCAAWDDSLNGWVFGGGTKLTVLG
modifications: afucosylated (no fucose on the N-glycan at N297)
B5: TPP-20950 (18206-gl-42-hIgG1wt-Lambda), afucosylated (antibody, V domains shown)
VH: EVQLLESGGGLVQPGGSLRLSCAASGFTFSSYGMHWVRQAPGKGLEWVSAIKWGGGSHGYADSVKGRFTISRDNSKNTLYLQMNSLRAEDTAVYYCARGHHSGKDGRFFDYWGQGTLVTVSS
VL: QSVLTQPPSVSGAPGQRVTISCTGSSSNIGAGYNVHWYQQLPGTAPKLLIYTNNRRPSGVPDRFSGSKSGTSASLAISGLRSEDEADYYCAAWDASLSGWVFGGGTKLTVLG
modifications: afucosylated (no fucose on the N-glycan at N297)
B6: TPP-20955 (18206-gl-47-hIgG1wt-Lambda), afucosylated (antibody, V domains shown)
VH: B5 VH with S102K, K104Y
VL: B5 VL
modifications: afucosylated (no fucose on the N-glycan at N297)
B7: TPP-20965 (18206-gl-58-hIgG1wt-Lambda), afucosylated (antibody, V domains shown)
VH: B5 VH with H58T
VL: B5 VL
modifications: afucosylated (no fucose on the N-glycan at N297)
B8: TPP-19546 (17578-gl33-hIgG1Lambda), afucosylated (antibody, V domains shown)
VH: B3 VH with N31S, N52S, N54S, V97A, N110Y
VL: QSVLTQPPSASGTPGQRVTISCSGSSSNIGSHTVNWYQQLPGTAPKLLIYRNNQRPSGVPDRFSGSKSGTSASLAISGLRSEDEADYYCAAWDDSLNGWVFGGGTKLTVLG
modifications: afucosylated (no fucose on the N-glycan at N297)
B9: TPP-21045 (17578-gl79-hIgG1-wt-Lambda), wild type (antibody, V domains shown)
VH: B3 VH with N31S, N52S, N54S, D62L, V97A, Y107F, N110Y
VL: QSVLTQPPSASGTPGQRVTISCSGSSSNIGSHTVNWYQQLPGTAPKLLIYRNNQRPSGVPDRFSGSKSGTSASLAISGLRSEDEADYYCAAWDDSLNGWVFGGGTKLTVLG
B10: TPP-19546 (17578-gl33-hIgG1Lambda), wild type (antibody, V domains shown)
VH: B3 VH with N31S, N52S, N54S, V97A, N110Y
VL: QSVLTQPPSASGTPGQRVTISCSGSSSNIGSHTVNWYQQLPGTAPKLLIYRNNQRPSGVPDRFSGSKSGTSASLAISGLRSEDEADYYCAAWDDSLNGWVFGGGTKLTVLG
B11: TPP-21045 (antibody, human IgG1, lambda, V domains shown)
VH: B3 VH with N31S, N52S, N54S, D62L, V97A, Y107F, N110Y
VL: not shown
B12: TPP-17577 (497A-M178-K09-1-hIgG1Lambda), WT (antibody, V domains shown)
VH: B2 VH
VL: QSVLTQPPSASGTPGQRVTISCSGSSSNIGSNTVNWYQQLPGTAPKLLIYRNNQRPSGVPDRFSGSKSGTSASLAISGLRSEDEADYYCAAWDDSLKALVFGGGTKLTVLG
B13: TPP-17577 (497A-M178-K09-1-hIgG1Lambda), afucosylated (antibody, V domains shown)
VH: B2 VH
VL: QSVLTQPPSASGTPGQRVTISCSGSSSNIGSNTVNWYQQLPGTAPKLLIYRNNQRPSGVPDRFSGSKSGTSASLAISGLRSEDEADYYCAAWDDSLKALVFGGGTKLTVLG
modifications: afucosylated N-glycan at N297
B14: TPP-17578 (497A-M128-B10-1-hIgG1Lambda), WT (antibody, V domains shown)
VH: B3 VH
VL: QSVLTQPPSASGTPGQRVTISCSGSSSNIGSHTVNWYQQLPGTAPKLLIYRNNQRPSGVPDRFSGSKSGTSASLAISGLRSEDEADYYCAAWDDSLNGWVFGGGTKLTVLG
B15: TPP-17578 (497A-M128-B10-1-hIgG1Lambda), afucosylated (antibody, V domains shown)
VH: B3 VH
VL: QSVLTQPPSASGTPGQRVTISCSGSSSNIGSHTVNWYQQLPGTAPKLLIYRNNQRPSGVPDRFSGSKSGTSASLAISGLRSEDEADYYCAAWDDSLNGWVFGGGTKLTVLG
modifications: afucosylated N-glycan at N297
B16: TPP-18205 (004-F10_497A-M296-L12+497A-M326-O09-hIgG1Lambda), WT (antibody, V domains shown)
VH: B1 VH
VL: B1 VL
B17: TPP-18205 (004-F10_497A-M296-L12+497A-M326-O09-hIgG1Lambda), afucosylated (antibody, V domains shown)
VH: B1 VH
VL: B1 VL
modifications: afucosylated N-glycan at N297
B18: TPP-19546, afucosylated (antibody, human IgG1, lambda, V domains shown)
VH: B3 VH with N31S, N52S, N54S, V97A, N110Y
VL: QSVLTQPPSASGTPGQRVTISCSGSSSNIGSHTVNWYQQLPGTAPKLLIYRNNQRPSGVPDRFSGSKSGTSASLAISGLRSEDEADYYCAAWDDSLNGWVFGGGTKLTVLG
modifications: afucosylated (no fucose on the N-glycan at N297)
B19: TPP-20950, afucosylated (antibody, human IgG1, lambda, V domains shown)
VH: B5 VH
VL: B5 VL
modifications: afucosylated (no fucose on the N-glycan at N297)
B20: TPP-20955, afucosylated (antibody, human IgG1, lambda, V domains shown)
VH: B5 VH with S102K, K104Y
VL: B5 VL
modifications: afucosylated (no fucose on the N-glycan at N297)

The binders below were run against T1, human CCR8 (human, UniProt P51685 1-355) (assay: cell-based or functional assay).

Row | Binder | Ca flux assay IC50 (nM), block of signaling induced by CCL1 at 80 ng/ml; CHO cells expressing human CCR8 [nM]
1 | B1 | 1.6
2 | B2 | 93.8
3 | B3 | 4.53

These binders were tested against T2, human CCR8 (human, UniProt P51685 1-355) (assay: cell-based or functional assay).

Row | Binder | ADCP EC50 (pM); activated human Tregs donor 1212 + M2c donor 3 [pM] | ADCP Max Response (%); activated human Tregs donor 1212 + M2c donor 3 [%]
4 | B4 | 9.2 | 13
5 | B5 | 23 | 14
6 | B6 | 14 | 13
7 | B7 | 163 | 14

Target: T2, human CCR8
Test: cell-based or functional assay
Remark: another data set of the same source

Row | Binder | ADCP EC50 (pM); activated human Tregs donor 1212 + M2c donor 4 [pM] | ADCP Max Response (%); activated human Tregs donor 1212 + M2c donor 4 [%]
8 | B4 | 17.1 | 23
9 | B5 | 10.7 | 24
10 | B6 | 13.2 | 23
11 | B7 | 563 | 23

Target: T2, human CCR8
Test: cell-based or functional assay
Remark: another data set of the same source

Row | Binder | ADCP EC50 (pM); activated human Tregs donor 1163 + M2c donor 1 [pM] | ADCP Max Response (%); activated human Tregs donor 1163 + M2c donor 1 [%]
12 | B4 | 30.1 | 28
13 | B8 |  | 15
14 | B9 | 130 | 27
15 | B7 | 766 | 44
16 | B10 |  | 14

Target: T1, human CCR8
Test: cell-based or functional assay
Remark: another data set of the same source

Row | Binder | Ca flux assay IC50 (nM), block of signaling induced by CCL1 at 60 ng/ml; CHO cells expressing human CCR8 [nM]
17 | B11 | 0.29

Target: T2, human CCR8
Test: cell-based or functional assay
Remark: another data set of the same source

Row | Binder | ADCP EC50 (pM); activated human Tregs donor 1163 + M2c donor 2 [pM] | ADCP Max Response (%); activated human Tregs donor 1163 + M2c donor 2 [%]
18 | B4 | 52.9 | 28
19 | B8 | 404 | 18
20 | B9 | 162 | 27
21 | B7 | 300 | 36
22 | B10 | ~1.69e+07 | 18

These binders were tested against human CCR8 (P51685_CCR8_HUMAN) (human, UniProt P51685 1-355) (assay: cell-based or functional assay).

Row | Binder | ADCC Max Response, activated Tregs + NK92v, Donor 1213 [%] | ADCC Max Response, activated Tregs + NK92v, Donor 1730 [%] | ADCC EC50, activated Tregs + NK92v, Donor 1213 [nM] | ADCC EC50, activated Tregs + NK92v, Donor 1730 [nM]
23 | B12 | 10 | 13 |  | 
24 | B13 | 41 | 40 | 1.85 | 4.57
25 | B14 | 5 | 8 |  | 197000
26 | B15 | 25 | 38 | 9.2 | 19
27 | B16 | 20 | 24 | ~0.00558 | ~0.018
28 | B17 | 52 | 58 | 0.23 | 1.05

These binders were tested against human CCR8 (human, UniProt P51685 1-355) (assay: cell-based or functional assay).

Row | Binder | ADCC Max Response (%); activated human Tregs (Donor 1100) as target cells, NK92v effector cells [%] | ADCC hTreg EC50 (pM); activated human Tregs (Donor 1100) as target cells, NK92v effector cells [pM]
29 | B18 | 54 | 8840
30 | B19 | 97 | 9.51
31 | B20 | 91 | 5.82

Target: T2, human CCR8
Test: cell-based or functional assay
Remark: another data set of the same source

Row | Binder | ADCP EC50 (pM); activated human Tregs donor 1212 + M2c macrophages [pM] | ADCP Max Response (%); activated human Tregs donor 1212 + M2c macrophages [%]
32 | B4 | 1220 | 30
33 | B5 | 128 | 32
34 | B6 | 408 | 29
35 | B8 |  | 20
